Assay results from patent US20100249184A1, “INDUCTION AND/OR MAINTENANCE OF TUMOR DORMANCY BY DISRUPTION OF UROKINASE PLASMINOGEN ACTIVATOR RECEPTOR-INTEGRIN INTERACTION” (MOUNT SINAI SCHOOL OF MEDICINE, priority 2007, published 2010).

How the values were obtained:
[1] = biological target: T1, purified human α5β1-integrin (Homo sapiens, UniProt P05556+P08648); assay: Solid phase dot-ELISA: α5β1-integrin binding to immobilized uPAR peptides and suPAR; conditions: for α5β1-integrin binding to immobilized peptide: peptide immobilized on nitrocellulose, α5β1-integrin 750 ng/ml; for reduction of integrin binding to immobilized uPAR: α5β1-integrin pre-incubated 15 min with 100 fold molar excess of peptide, suPAR 1.5 μg
T1 construct: purchased Chemicon International (Temecula, Calif.)
Protocol: FIGS. 1A-H show the interaction between α5β1-integrin and immobilized uPAR and uPAR-derived synthetic peptides through solid-phase dot-ELISA. […] Bound integrin was detected with anti-α5 integrin antibody followed by goat anti-rabbit IgG (H+L) HRP conjugated secondary antibody and developed with enhanced chemiluminescence (“ECL”). FIG. 1B is a graph showing that binding of integrin to suPAR is saturable. SuPAR (1.5 μg) was immobilized on nitrocellulose membrane in triplicates, incubated with 0, 0.1, 0.5, 1, 2, and 4 μg/ml of α5β1-integrin and tested for integrin binding as in FIG. 1A. The dots were scanned with NIH Image. Mean and SE are shown. […] Peptides representing regions located in each of the three uPAR-domains were immobilized, incubated with α5β1-integrin, and analyzed as in FIG. 1A. Only peptide 240-248 binds α5β1-integrin. FIG. 1D is a graph showing that peptide 240-248 inhibits integrin binding to suPAR. The α5β1-integrin (750 ng/ml) was pre-incubated for 15 min at room temperature with 100 fold molar excess of 240-248 or 17-24 peptides, or with no peptide (Control) and the mixtures were applied to immobilized suPAR (1.5 μg), 2 dots per mixture, and developed as in FIG. 1A. The dots were scanned with NIH Image. The results (bars) show % of control, the lines show range. FIG. 1E is a graph showing binding of α5β1- and α3β1-integrin to suPAR and peptide 240-248. Dot-ELISA was performed in duplicate as in FIG. 1A, except that purified α5β1-integrin and α3β1-integrin (750 ng/ml) were used. Bound integrins were detected with the appropriate previously titrated antibodies followed by goat anti-rabbit IgG (H+L) HRP conjugated secondary antibody and detection with ECL. The graph represents the mean and range of two values: α5β1-integrin binding to peptide 240-248 (▪) or SuPAR (▴); α3β1-integrin binding to peptide 240-248 ([…]) and SuPAR (x). […] Peptide 240-248 (domain III), 17-24 (domain I), and the S245A mutant of peptide 240-248 were immobilized and tested for integrin binding as in FIG. 1A. FIGS. 1G-H show the crystal structure of human uPAR shown as a surface representation. The three individual domains of uPAR in FIG. 1G are indicated as follows: D1 is on the right side, DII is on the top of the model, and Diii is on the left of the model. In FIG. 1H, the order of the domains is inversed. […] The location of the COOH-terminal in uPAR domain III harboring the GPI-anchor is indicated by the arrow (FIG. 1H). FIGS. 1G-H were created by the program PyMol (DeLano Scientific) using the coordinates 1YWH.
FIGS. 2A-B show solid phase dot-ELISA of suPAR. […] Binding was detected as in FIG. 1A and the dots were scanned with NIH Image. Mean of the two-scanned value for each suPAR concentration are shown in the bottom panel. Mutation of residues in the 239-249 sequence reduced the integrin binding by ˜50 to 94%. suPAR^E33A (▪), suPAR^wt (▴), suPAR^R239A (♦), suPAR^H249A (x), suPAR^Q248A (∘), suPAR^M246A ([…]), suPAR^S245A (□).
Synthetic uPAR-derived peptides and mutant proteins were diluted to 0.5, 1, and 2 μg/100 μl of PBS. […] The strips, pinned to the bottom of a plastic box, were washed with TBS with 0.1% Tween 20, overlaid with 500 μl of rabbit anti-integrin α5 polyclonal antibody (1:650) for 1 hr at RT, washed with TBST twice, incubated with goat anti-rabbit IgG (H+L) HRP conjugated secondary antibody (1:2000) for 1 hr, washed 3 times with TBST, and developed with ECL. The dots were scanned with NIH image.

T-HEp3 cells = assay: Adhesion assay to fibronectin, T-HEp3 cells; assay type: cell-based, human; conditions: peptide 20 or 200 μM, 15 min

T1 sequence (P08648 42-894 limits assumed): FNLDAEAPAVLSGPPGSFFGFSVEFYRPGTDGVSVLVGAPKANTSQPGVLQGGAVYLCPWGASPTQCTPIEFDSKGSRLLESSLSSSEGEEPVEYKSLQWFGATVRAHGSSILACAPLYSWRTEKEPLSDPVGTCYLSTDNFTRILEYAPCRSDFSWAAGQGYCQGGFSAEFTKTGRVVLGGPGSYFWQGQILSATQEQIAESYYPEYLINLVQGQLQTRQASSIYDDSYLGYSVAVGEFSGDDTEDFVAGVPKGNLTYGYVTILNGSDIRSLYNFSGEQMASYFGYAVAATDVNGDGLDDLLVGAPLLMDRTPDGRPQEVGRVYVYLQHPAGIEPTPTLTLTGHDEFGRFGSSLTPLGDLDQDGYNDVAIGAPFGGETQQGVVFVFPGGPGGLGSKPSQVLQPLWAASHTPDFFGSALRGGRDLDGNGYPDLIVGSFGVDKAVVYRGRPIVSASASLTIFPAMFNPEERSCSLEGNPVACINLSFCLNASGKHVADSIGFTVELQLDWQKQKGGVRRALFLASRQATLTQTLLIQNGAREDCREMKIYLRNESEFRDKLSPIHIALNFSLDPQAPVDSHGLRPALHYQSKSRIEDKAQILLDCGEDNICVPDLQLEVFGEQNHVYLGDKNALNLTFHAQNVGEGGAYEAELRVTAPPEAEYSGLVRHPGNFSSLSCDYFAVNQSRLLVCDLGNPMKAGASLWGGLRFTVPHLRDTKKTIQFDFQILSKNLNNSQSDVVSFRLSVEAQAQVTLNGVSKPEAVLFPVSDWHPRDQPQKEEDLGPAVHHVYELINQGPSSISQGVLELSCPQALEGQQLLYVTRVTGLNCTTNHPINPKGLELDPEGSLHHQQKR
T1 sequence (P08648 895-1049 limits assumed): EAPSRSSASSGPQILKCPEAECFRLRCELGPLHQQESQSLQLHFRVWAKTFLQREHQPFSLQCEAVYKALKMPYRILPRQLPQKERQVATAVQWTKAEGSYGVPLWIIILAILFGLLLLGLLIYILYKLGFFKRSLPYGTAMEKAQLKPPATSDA
T1 sequence (P05556 21-798): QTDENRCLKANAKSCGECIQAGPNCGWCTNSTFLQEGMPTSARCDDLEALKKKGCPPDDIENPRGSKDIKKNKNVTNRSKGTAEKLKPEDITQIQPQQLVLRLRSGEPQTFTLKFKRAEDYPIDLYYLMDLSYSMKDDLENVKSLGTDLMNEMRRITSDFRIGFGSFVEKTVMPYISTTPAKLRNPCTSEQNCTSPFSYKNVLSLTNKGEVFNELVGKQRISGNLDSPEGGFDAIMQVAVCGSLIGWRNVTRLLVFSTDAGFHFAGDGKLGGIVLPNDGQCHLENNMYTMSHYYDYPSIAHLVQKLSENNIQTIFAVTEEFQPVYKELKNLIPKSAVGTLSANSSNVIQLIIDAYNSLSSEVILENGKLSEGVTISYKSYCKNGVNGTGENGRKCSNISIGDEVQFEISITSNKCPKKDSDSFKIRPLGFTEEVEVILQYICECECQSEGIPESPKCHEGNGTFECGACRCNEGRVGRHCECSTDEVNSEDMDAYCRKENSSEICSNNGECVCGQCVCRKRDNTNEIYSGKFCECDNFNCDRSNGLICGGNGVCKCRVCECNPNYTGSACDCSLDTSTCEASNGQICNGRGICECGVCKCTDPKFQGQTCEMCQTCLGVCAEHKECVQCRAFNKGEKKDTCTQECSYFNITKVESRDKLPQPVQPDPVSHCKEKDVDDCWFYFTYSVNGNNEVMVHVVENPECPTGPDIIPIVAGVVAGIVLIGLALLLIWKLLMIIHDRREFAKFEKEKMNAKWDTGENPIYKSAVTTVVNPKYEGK

| Substance | α5β1-integrin binding to immobilized peptide [1] | reduction of integrin binding to immobilized uPAR [1] | adhesion to fibronectin (T-HEp3 cells) |
| --- | --- | --- | --- |
| peptide 17-24: synthetic uPAR-derived peptide, domain I amino acid 17-24: CALGQDLC (SEQ ID NO:5); negative control [reference compound] | no binding | negligible effect | no effect |
| peptide 240-248: synthetic uPAR-derived peptide, domain III residues 240-248: GCATASMCQ (SEQ ID NO:9) | bound α5β1-integrin in a dose-dependent fashion | more than 70% | reduced adhesion to fibronectin |
